From patent US7038022, “Multimeric forms of members of the steroid/thyroid superfamily of receptors” (The Salk Institute for Biological Studies)

Legend:
[1] = biological target: T1, COUP-TF/RXRalpha heterodimer (UniProt P10589;P19793 P10589:1-423,P19793:1-462); experiment: EMSA; heterodimer favored over homodimers; supershifted by RXR antiserum; conditions: tags: RXR as GST fusion; label: 32P
Method: (§1) Bacterial-expressed COUP-TF and RXR-glutathione-S-transferase fusion protein (RXR-GST) were mixed and the resulting complexes analyzed by gel mobility shift assays using ^32P-labeled DR-1 oligonucleotide (i e., SEQ ID No. 21) as probe. The larger RXR fusion protein was used in order to maximize the migratory differences observed between the COUP-TF and RXR complexes.
(§2) Gel mobility shift assays were performed using ^32P-labeled DR-1 oligonucleotide (SEQ ID No. 21) in the presence of partially-purified COUP-TF (500 ng) and increasing amounts of partially-purified RXR (1×–50 ng) as indicated in FIG. 1. Either 0.3 μl or 1 μl of RXR-specific antiserum was included in the assays (shown in lanes 11 and 12, respectively). The positions of the RXR-specific and COUP-TF-specific complexes are indicated in FIG. 1 by a plain line ("–"). […] The free probe was run off the gel and is not shown.

COUP-TF (EAR-3) = biological target: T2, COUP-TF (EAR-3) (UniProt P10589 P10589:1-423); experiment: EMSA; COUP-TF-specific complex, 500 ng protein; conditions: tags: none, pET-8C bacterial expression, partially purified; label: 32P
T2 sequence: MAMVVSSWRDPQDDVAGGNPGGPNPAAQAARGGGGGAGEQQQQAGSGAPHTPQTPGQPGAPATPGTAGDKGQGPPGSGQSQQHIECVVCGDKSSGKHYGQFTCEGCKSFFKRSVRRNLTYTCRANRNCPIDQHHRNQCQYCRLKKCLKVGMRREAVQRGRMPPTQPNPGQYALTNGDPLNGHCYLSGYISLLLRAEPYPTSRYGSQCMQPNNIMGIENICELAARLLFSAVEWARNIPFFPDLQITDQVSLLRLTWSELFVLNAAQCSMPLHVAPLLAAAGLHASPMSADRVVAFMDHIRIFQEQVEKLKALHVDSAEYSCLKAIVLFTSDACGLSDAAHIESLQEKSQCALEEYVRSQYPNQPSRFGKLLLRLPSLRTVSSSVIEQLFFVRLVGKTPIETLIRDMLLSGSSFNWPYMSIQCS
Method: as §1, §2

RAR/RXR heterodimer [2] = biological target: T3, RAR/RXR heterodimer (UniProt P10276;P19793 P10276:1-462,P19793:1-462); experiment: EMSA; high affinity; 10-fold excess of unlabeled site competes; conditions: label: 32P
[3] = biological target: T4, hRARα expressed in cells from RS-hRARα (human, UniProt P10276 1-462); experiment: gel mobility shift, βRARE probe, whole-cell extracts of transfected Cos cells
T4 construct: Intracellular expression; whole cell extracts in the Cos cell gel shifts; also called RS-hRARa; RS-RARα
T4 sequence (looked up): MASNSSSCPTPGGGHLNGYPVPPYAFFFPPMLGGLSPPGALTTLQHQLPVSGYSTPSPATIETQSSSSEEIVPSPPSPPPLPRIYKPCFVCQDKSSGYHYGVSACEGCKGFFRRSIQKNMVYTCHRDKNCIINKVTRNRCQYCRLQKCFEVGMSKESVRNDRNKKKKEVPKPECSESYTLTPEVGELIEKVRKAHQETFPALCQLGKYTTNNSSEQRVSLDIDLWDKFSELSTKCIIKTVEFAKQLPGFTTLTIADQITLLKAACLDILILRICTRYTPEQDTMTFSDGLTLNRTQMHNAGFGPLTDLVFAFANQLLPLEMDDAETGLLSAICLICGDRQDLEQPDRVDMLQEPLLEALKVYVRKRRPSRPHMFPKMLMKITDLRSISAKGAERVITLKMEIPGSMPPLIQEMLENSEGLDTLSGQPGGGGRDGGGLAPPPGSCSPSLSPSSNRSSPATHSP
Method: DNA-protein complexes were resolved on a 4% polyacrylamide gel in 0.5×TBE (1×TBE=90 mM Tris, 90 mM boric acid, 2 mM EDTA).

[4] = biological target: the molecule itself; experiment: gel mobility shift, 32P-labeled DR-1 probe
RAR/RXR heterodimer [5] = biological target: T3, RAR/RXR heterodimer; experiment: EMSA; high affinity; also competes for CRBPII-RXRE binding; conditions: label: 32P
[6] = biological target: T1, COUP-TF/RXRalpha heterodimer; experiment: EMSA; supershift data similar to DR-1; conditions: tags: RXR as GST fusion; label: 32P

B1: DR-1 (dsDNA)
DNA 1: AGCTTCAGGTCAGAGGTCAGAGAGCT
DNA 2: AGCTCTCTGACCTCTGACCTGAAGCT
B1: binds [1]; binds (COUP-TF (EAR-3)).

B2: CRBPII-RXRE (dsDNA)
DNA 1: AGCTGTCACAGGTCACAGGTCACAGGTCACAGTTCAAGCT
DNA 2: AGCTTGAACTGTGACCTGTGACCTGTGACCTGTGACAGCT
B2: binds (RAR/RXR heterodimer [2]).

B3: hRXRα expressed in cells from RS-hRXRα (receptor, human, UniProt P19793 1-462, looked up)
chain: MDTKHFLPLDFSTQVNSSLTSPTGRGSMAAPSLHPSLGPGIGSPGQLHSPISTLSSPINGMGPPFSVISSPMGPHSMSVPTTPTLGFSTGSPQLSSPMNPVSSSEDIKPPLGLNGVLKVPAHPSGNMASFTKHICAICGDRSSGKHYGVYSCEGCKGFFKRTVRKDLTYTCRDNKDCLIDKRQRNRCQYCRYQKCLAMGMKREAVQEERQRGKDRNENEVESTSSANEDMPVERILEAELAVEPKTETYVEANMGLNPSSPNDPVTNICQAADKQLFTLVEWAKRIPHFSELPLDDQVILLRAGWNELLIASFSHRSIAVKDGILLATGLHVHRNSAHSAGVGAIFDRVLTELVSKMRDMQMDKTELGCLRAIVLFNPDSKGLSNPAEVEALREKVYASLEAYCKHKYPEQPGRFAKLLLRLPALRSIGLKCLEHLFFFKLIGDTPIDTFLMEMLEAPHQMT
notes: Intracellular expression; whole cell extracts in the Cos cell gel shifts; also called RS-hRXRa
B3: binds [3].

B4: RXR-glutathione-S-transferase fusion protein (hRXRα expressed in bacteria as a fusion with glutathione-S-transferase, pGEX-2T) (receptor, human, UniProt P19793 1-462, looked up)
chain: B3 chain
notes: GST placed N-terminal as in pGEX-2T vectors; also called RXR-GST; GST-RXR; not shown: glutathione-S-transferase encoded by the pGEX-2T expression vector
B4: binds [4].

B5: βRARE (dsDNA)
DNA 1: AGCTTAAGGGTTCACCGAAAGTTCACTCGCATAGCTGCT
DNA 2: AGCAGCTATGCGAGTGAACTTTCGGTGAACCCTTAAGCT
B5: binds (RAR/RXR heterodimer [5]).

B6: chicken ovalbumin upstream promotor transcription factor (COUP-TF; EAR-3) (receptor, UniProt P10589 1-423, looked up)
chain: T2 sequence
notes: mature; Partially purified bacterial protein in the gel shifts; also called bacterially-expressed COUP-TF; RS-COUP-TF product
B6: binds [4].

B7: COUP-TF RE (ovalbumin) (dsDNA)
DNA 1: AGCTTGGTGTCAAAGGTCAAACTTAGCT
DNA 2: AGCTAAGTTTGACCTTTGACACCAAGCT
B7: binds [6].
